The target in test [1] is T1, Trop-2 (human, UniProt P09758 27-323).
T1 construct: whole, on cells; also called Trop-2 on A431, HeLa, BxPC-3, SiHa and Capan-2 cells
T1 sequence (looked up): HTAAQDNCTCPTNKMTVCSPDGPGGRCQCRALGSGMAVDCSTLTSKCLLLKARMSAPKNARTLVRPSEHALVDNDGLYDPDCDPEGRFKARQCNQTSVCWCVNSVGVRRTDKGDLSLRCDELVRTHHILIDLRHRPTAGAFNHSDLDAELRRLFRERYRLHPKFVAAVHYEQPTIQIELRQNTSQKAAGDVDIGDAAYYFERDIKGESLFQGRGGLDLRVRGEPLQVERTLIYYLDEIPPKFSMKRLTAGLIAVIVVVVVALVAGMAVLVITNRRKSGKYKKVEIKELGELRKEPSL
Put plainly: flow cytometry on HeLa cells, AF647 goat anti-human secondary, 4PL fit; curve plateaus at about 145,000 MFI at 100-300 nM. Background: Flow cytometry measures light scatter and fluorescence of single cells or particles in a stream.

For test [2], the target named is T1, Trop-2. Kind of test: flow cytometry on A431 cells (MFI).
The target in test [3] is T2, human Dectin-1 isoform A (human, UniProt Q9BXN2 1-247).
T2 construct: also called hDectin-1a; Dectin-1 on HEK-Blue hDectin-1a cells
T2 sequence: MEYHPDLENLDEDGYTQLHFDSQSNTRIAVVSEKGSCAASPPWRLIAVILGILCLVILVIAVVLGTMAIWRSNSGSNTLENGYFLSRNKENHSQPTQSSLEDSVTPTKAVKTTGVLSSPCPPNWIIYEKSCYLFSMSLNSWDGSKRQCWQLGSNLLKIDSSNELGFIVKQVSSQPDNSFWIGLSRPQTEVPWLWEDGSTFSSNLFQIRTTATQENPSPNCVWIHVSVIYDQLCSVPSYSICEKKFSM
Kind of test: flow cytometry on HEK Blue Dectin 1a cells (MFI).

For test [4], the target named is T1, Trop-2. Kind of test: flow cytometry on Capan-2 cells, AF647 goat anti-human secondary, 4PL fit; curve reaches about 1,720,000 MFI at 300 nM and starts to flatten.
Test [5] addresses T1, Trop-2. Kind of test: flow cytometry on SiHa cells, AF647 goat anti-human secondary, 4PL fit; curve still rising (about 89,000 MFI) at the highest concentration, 300 nM.
Test [6] addresses T1, Trop-2. Kind of test: flow cytometry on BxPC-3 cells, AF647 goat anti-human secondary, 4PL fit; curve still rising (about 3,500,000 MFI) at the highest concentration, 300 nM.
In another test the target is T3, Nectin-4 (UniProt Q96NY8 32-510, limits assumed).
T3 construct: whole, on cells; also called PVRL4; Nectin-4 on A431 cells
T3 sequence (looked up): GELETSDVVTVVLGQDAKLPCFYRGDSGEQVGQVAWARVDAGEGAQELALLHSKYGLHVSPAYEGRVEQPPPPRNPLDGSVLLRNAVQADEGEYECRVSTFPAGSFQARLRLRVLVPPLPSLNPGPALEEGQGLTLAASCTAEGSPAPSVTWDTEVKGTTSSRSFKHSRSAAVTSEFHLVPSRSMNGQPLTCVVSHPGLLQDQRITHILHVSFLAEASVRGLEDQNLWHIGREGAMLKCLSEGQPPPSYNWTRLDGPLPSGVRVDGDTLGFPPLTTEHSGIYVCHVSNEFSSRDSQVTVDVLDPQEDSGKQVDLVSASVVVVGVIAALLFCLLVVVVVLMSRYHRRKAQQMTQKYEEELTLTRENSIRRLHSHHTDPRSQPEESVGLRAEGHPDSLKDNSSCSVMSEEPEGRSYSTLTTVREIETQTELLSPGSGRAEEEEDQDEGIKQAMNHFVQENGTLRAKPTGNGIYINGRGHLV
Put plainly: flow cytometry on Nectin-4-expressing A431 cells (lower panel), AF647 goat anti-human IgG secondary, 4PL fit; curve still rising (about 92,000 MFI) at 300 nM, no plateau.

The target of test [7] is T4, human Dectin-1 isoform B (human, UniProt Q9BXN2 1-247).
T4 construct: also called hDectin-1b; Dectin-1 on HEK Blue hDectin-1-b cells
T4 sequence: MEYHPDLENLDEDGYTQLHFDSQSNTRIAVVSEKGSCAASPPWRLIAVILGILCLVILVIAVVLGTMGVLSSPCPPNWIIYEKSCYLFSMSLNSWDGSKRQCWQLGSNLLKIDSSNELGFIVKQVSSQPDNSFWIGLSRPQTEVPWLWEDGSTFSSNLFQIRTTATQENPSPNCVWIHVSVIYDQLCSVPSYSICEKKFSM
Kind of test: flow cytometry on HEK-Blue hDectin-1b cells (summary table).

Test [8] concerns the target T2, human Dectin-1 isoform A. Put plainly: flow cytometry on HEK-Blue hDectin-1a cells.
Test [9] deals with T5, cynomolgus monkey Dectin-1 expressed on monocytes (cynomolgus monkey, UniProt A0A2K5UXY6 35-281).
T5 construct: whole, on cells; also called cynomolgus Dectin-1; cyno Dectin-1
T5 sequence: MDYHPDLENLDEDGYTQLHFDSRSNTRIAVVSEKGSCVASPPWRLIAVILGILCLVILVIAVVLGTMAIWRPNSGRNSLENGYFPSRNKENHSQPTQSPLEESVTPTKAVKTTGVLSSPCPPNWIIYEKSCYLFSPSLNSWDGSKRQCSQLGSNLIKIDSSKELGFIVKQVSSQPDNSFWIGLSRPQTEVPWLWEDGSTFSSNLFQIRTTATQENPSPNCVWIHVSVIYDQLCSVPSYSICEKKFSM
Kind of test: flow cytometry, cynomolgus monocytes.

Test [10] has as its target T2, human Dectin-1 isoform A. Kind of test: flow cytometry on HEK293F hDectin-1a FL cells.
For test [11], the target named is T4, human Dectin-1 isoform B. Kind of test: flow cytometry on HEK-Blue hDectin-1b cells.
The target in test [12] is T2, human Dectin-1 isoform A. Kind of test: flow cytometry on HEK293F hDectin-1a FL cells (summary table).
In test [13] the target is T2, human Dectin-1 isoform A. Kind of test: flow cytometry on HEK-Blue hDectin-1a cells (summary table).
Test [14] concerns the target T2, human Dectin-1 isoform A. Kind of test: flow cytometry, HEK-Blue hDectin-1a cells.
Test [15] deals with T6, human Dectin-1 (biosensor tests of Tables 3, 4A and 9; construct not stated) (human, UniProt Q9BXN2 66-247, limits assumed).
T6 construct: also called hDectin-1
T6 sequence (looked up): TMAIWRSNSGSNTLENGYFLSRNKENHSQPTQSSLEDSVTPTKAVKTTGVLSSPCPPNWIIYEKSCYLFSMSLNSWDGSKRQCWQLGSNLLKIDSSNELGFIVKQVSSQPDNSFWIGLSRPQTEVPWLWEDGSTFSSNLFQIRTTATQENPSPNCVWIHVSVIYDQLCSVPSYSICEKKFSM
Kind of test: Octet. On the technique in general: Biolayer interferometry detects binding as a change in optical thickness at a sensor tip.

For test [16], the target named is T6, human Dectin-1 (biosensor tests of …). Kind of test: Octet response. As to X = 340: time not given here. As to X = 470: time not given here.
For test [17] the target is unchanged. Put plainly: Octet, single point off rate fit.

Residue numbers refer to the chain shown, from its start. In names and notes the source's numbering stands.
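For delta in this document: Single-point dissociation rate (koff) fit for each variant binding domain, expressed as change versus the parental clone.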

B1: 2M24/Trop-2 hIgG1 bispecific antibody (bispecific antibody, V domains shown)
VH 1: QVQLVQSGAEVKKPGASVKVSCKSSGYTFTDYYIHWVRQAPGQGLEWMGWINPNSGDTNYAQKFQGRITMTRDTSISTAYLELSRLRSDDTAVFYCARNSGSYSFGYWGQGTLVTVSS
VL 1: DIQMTQSPSSVSASVGDRVTITCRASQGISSWLAWYQQKPGKAPKLLIFGASSLQSGVPSRFSGSGSGTDFTLTVSSLQPEDFATYYCQQAYSFPFTFGPGTKVDIE
VH 2: QVQLQQSGSELKKPGASVKVSCKASGYTFTNYGMNWVKQAPGQGLKWMGWINTYTGEPTYTDDFKGRFAFSLDTSVSTAYLQISSLKADDTAVYFCARGGFGSSYWYFDVWGQGSLVTVSS
VL 2: DIQLTQSPSSLSASVGDRVSITCKASQDVSIAVAWYQQKPGKAPKLLIYSASYRYTGVPDRFSGSGSGTDFTLTISSLQPEDFAVYYCQQHYITPLTFGAGTKVEIK
notes: human IgG1; also called anti-Dectin-1 (2M24)/anti-Trop-2 bispecific antibody
With B1, the EC50 (commonly the concentration giving half of the maximal effect) with Trop-2 [1] is 26.2 nM; in the test with Trop-2 [2] it was 9.04 nM; with human Dectin-1 isoform A [3], 0.958 nM; in the test with Trop-2 [4] it was 59.4 nM; with Trop-2 [5], 77.4 nM; with Trop-2 [6] it was 348 nM.

B2: 2M24/Nectin-4 hIgG1 bispecific antibody (bispecific antibody, V domains shown)
VH 1: B1 VH 1
VL 1: B1 VL 1
VH 2: EVQLVESGGGLVQPGGSLRLSCAASGFTFSSYNMNWVRQAPGKGLEWVSYISSSSSTIYYADSVKGRFTISRDNAKNSLSLQMNSLRDEDTAVYYCARAYYYGMDVWGQGTTVTVSS
VL 2: DIQMTQSPSSVSASVGDRVTITCRASQGISGWLAWYQQKPGKAPKFLIYAASTLQSGVPSRFSGSGSGTDFTLTISSLQPEDFATYYCQQANSFPPTFGGGTKVEIK
notes: human IgG1; DuetMab mutations F126C and C220V (heavy), S121C and C214V (light)
For B2, the EC50 in the test with Nectin-4 was ~32 nM.

B3: anti-human Dectin-1 antibody clone 2M24 (mIgG1) (antibody, V domains shown)
VH: B1 VH 1
VL: B1 VL 1
notes: hybridoma antibody with human variable and mouse constant domains (mIgG1); also called 2M24 clone; mIgG1 2M24
On to B3, for which the EC50 with human Dectin-1 isoform B [7] was determined as 1 nM; in the test with human Dectin-1 isoform A [8] it was 0.4 nM; in test [9] it was 0.3 nM; in the test with human Dectin-1 isoform A [10], 1.1 nM; with human Dectin-1 isoform B [11], 1 nM; with human Dectin-1 isoform A [12], 1.1 nM. Besides, it took 0.4 nM to reach a half-maximal effect in the test with human Dectin-1 isoform A [13] (EC50).

B4: fully human 2M24 anti-Dectin-1 antibody (hIgG4) (antibody, V domains shown)
VH: B1 VH 1
VL: B1 VL 1
notes: human IgG4; also called 2M24 (hIgG4); hIgG4 2M24
For B4, a half-maximal response with human Dectin-1 isoform A [14] (EC50) required 1.6 nM.

B5: 2M24A.1.14 hFab (Fab, V domains shown)
VH: B1 VH 1 with Y103A
VL: B1 VL 1
notes: Fab; also called 2M24.1.14
For B5, the delta in [15] turned out to be 100%. In addition, in test [16], the “X = 340” value came out at 0.106 and the “X = 470” value is 0. Further, the koff (commonly the first-order rate constant of dissociation) in [17] was 0.313 s⁻¹.

B6: 2M24A.1.15 (Fab, V domains shown)
VH: B1 VH 1 with R98A
VL: B1 VL 1
notes: Fab; also called 2M24.1.15
In test [15], B6 gave a delta of 62%. Moreover, in test [16], the “X = 290” value came to 0.082 and the “X = 350” value was 0.0314. Besides, the koff in test [17] was 0.0239 s⁻¹.
